Earlier results as cited in publication PMC5466818.

Target: formin Bnr1 (Saccharomyces cerevisiae) (UniProt P40450)
Chain of UniProt P40450 (P40450 whole entry): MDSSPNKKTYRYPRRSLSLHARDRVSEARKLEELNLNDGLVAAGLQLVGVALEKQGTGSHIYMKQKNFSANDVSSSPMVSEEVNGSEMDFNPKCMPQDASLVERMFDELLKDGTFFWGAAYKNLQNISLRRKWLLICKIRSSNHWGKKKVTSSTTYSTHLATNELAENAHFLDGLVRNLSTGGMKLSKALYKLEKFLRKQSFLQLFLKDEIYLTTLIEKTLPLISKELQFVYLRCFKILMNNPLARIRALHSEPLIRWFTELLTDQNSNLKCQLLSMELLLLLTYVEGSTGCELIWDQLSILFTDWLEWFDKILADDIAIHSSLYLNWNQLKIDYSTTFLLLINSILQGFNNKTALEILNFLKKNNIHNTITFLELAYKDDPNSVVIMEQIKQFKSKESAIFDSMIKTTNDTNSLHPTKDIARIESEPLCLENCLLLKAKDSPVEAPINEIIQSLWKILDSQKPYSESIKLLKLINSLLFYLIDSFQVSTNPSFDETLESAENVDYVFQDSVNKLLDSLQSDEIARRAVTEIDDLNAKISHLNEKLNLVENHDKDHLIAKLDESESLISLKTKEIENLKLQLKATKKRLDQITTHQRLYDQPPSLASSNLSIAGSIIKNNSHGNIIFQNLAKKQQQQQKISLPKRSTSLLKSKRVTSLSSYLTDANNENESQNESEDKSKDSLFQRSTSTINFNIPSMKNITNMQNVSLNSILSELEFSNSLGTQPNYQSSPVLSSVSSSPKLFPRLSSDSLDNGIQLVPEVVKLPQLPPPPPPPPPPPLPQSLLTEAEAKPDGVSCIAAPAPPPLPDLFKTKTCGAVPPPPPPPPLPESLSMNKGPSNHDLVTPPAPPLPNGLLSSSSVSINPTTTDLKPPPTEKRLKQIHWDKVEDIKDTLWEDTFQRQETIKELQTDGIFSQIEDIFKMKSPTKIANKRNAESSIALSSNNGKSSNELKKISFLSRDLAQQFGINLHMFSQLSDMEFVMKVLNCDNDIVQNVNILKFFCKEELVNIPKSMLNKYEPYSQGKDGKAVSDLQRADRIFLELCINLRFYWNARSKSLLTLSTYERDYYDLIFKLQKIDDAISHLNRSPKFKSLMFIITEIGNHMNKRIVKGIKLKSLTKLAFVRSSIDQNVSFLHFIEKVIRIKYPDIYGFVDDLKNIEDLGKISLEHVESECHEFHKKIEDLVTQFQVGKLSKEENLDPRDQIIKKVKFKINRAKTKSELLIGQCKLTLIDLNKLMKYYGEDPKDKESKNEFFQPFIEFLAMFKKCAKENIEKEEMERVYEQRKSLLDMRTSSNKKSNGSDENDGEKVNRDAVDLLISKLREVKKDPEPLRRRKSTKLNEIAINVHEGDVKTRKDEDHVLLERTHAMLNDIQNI

- Kd: 15 nM
Substance: Bud14 (from UniProt P27637)
